Common to all, as to assay: cell_activity
The test system of data set [1] is Type I-F3a CAST with Cas6 R125A Cas6 R125A (Vibrio cholerae HE-45). The conditions noted are these: below detection.
The subject of data set [2] is Type I-F3a CAST with Cas6 R117A Cas6 R117A (Vibrio cholerae HE-45). The conditions noted are these: below detection.
Data set [3] relates to Type I-F3a CAST with Cas6 R121A Cas6 R121A (Vibrio cholerae HE-45). As to conditions: below detection.
Data set [4] deals with Type I-F3a CAST (TniQ-Cascade + TnsABC) (Vibrio cholerae HE-45).

Regarding “lacZ crRNA, native I-F3a CAST repeat ; lacZ target”, the activity in data set [1] is < 1e-07 cfu; in data set [2] it was < 1e-07 cfu; in data set [3], < 1e-07 cfu; in data set [4] (transposition efficiency of viable recipients (+/- 0.2), E. coli, conjugation assay, PAM not stated) it was 1.4%.

As to “lacZ crRNA, canonical type I-E repeat ; lacZ target”, the relative transposition efficiency (fold of native) in data set [4] (printed as ~10-3-fold less efficient than native crRNA) was determined as 0.001.

The values are drawn from patent publication US20250066819.
